No end group written: not given here.

The assay deals with Recombinant DPP-IV. Briefly: cell-based or functional assay.
Consider YAEGTFISDYSIALDKIHQQDFVNWLLAQKPSSGAPPPS-{Ado-Lys(N-ε-(2-(S)-cyano pyrrolidyl))} [[Leu^14] GIP(1-30)-exendin-4(31-39)-Ado-Lys-N-ε-(2-(S)-cyano pyrrolidyl)], for which the DPP-IV IC50 was determined as 0.082 µM. The result for YAEGTFISDYSIAMDKIHQQDFVNWLLAQKPSSGAPPPS (modifications not checked) [N-(γ-L-Glu-(2-(S)-cyano pyrrolidyl)-Ado-Ado) GIP(1-30)-exendin-4(31-39)] reads 0.11 µM. On to YAEGTFISDYSIAMDKIHQQDFVNWLLAQKPSSGAPPPS (modifications not checked) [[D-Ala^2] GIP(1-30)-exendin-4(31-39)-Ado-Lys-N-ε-(2-(S)-cyano pyrrolidyl)], for which the DPP-IV IC50 turned out to be 0.085 µM.

Values taken from US20140371148A1.
